The values below are quoted from earlier work in paper PMC10612106.

The target in the data set is MORC3 ATPase domain (Homo sapiens) (UniProt Q14149).

As usually defined, the Kd is the concentration at which binding is half-saturated. In the case of MORC3 CW (from UniProt Q14149), the Kd is 9 µM.
